Assay results: US20180250358A1, “GHRH AGONISTS FOR THE TREATMENT OF ISCHEMIC DISORDERS” (published 2018)
Where two headings read alike, the source gives them in different places. Non-standard residues stand in square brackets, D forms with d. No end group written: not given here. *: point of attachment. NMeY = CN[C@@H](Cc1ccc(O)cc1)C(=O)O; Agmatine = N=C(N)NCCCCN*; Nle = CCCC[C@H](N)C(=O)O; Orn = NCCC[C@H](N)C(=O)O; Abu = CC[C@H](N)C(=O)O

Key:
[1] = biological target: T1, GHRH receptor of human pituitary membranes (human, UniProt Q02643); test: competition vs 125I-JV-1-42, human pituitary membranes
T1 sequence: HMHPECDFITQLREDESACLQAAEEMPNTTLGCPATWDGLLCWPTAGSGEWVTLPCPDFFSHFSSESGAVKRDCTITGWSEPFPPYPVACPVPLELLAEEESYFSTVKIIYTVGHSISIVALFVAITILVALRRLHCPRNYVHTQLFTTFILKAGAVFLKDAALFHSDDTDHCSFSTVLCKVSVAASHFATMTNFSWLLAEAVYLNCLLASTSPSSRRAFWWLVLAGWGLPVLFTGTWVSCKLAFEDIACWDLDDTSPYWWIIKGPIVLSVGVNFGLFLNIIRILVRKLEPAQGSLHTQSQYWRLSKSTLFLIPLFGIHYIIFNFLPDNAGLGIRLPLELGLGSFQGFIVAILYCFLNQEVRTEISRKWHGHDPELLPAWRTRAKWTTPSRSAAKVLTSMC
Procedure: The final binding affinities were expressed as IC₅₀ values and were calculated by using the LIGAND PC computerized curve-fitting program of Munson and Rodbard as modified by McPherson.

[2] = biological target: T1, GHRH receptor of human pituitary …; test: competition vs 125I-[His1,Nle27]hGHRH(1-32)NH2, human pituitary membranes
Source text: Normal human pituitary was purchased from the National Hormone and Peptide Program (UCLA Medical Center, Torrance, Calif.).

[3] = biological target: T2, GHRH receptor of rat pituitary cells (rat, UniProt Q02644); test: cell-based or functional assay
T2 sequence: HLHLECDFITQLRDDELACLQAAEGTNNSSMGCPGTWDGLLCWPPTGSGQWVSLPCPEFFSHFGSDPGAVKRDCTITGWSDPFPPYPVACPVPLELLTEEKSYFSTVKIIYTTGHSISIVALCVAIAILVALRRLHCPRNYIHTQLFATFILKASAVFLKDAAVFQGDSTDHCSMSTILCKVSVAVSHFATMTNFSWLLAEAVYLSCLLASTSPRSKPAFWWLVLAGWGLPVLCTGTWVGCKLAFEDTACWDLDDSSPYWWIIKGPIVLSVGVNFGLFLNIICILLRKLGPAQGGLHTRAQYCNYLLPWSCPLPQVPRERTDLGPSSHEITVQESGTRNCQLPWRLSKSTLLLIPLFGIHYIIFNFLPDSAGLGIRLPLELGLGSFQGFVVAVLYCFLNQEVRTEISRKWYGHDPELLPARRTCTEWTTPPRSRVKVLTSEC

[4] = biological target: T1, GHRH receptor of human pituitary …; test: competition vs 125I-JV-1-42, human pituitary membranes; remark: listed apart in the source
Source text: Normal human pituitaries were purchased from the National Hormone and Peptide Program (A.F. Parlow, Los Angeles, County Harbor-UCLA Medical Center, Torrance, Calif.).

[5] = biological target: T1, GHRH receptor of human pituitary …; test: competition vs 125I-[His1,Nle27]hGHRH(1-32)NH2, human pituitary membranes; remark: listed apart in the source

Binder: [NMeY]ADAIFTQSYR[Orn]VL[Abu]QLSAR[Orn]LLQDI[Nle]D[Agmatine] [P-20356 [N-Me-Tyr^1, Gln^8, Orn^12, Abu^15, Orn^21, Nle^27, Asp^28, Agm^29]hGHRH(1-29)NH2]
- IC50 [1]: 10 pM
- relative affinity (binding potency) vs GHRH [1]: 406 vs GHRH(1-29)=1
- relative affinity (binding potency) vs JI-38 [1]: 171 vs JI-38=1
- relative affinity (binding potency) compared to JI-38 [2]: 2.69 vs JI-38=1
- relative affinity (binding potency) compared to hGHRH(1-29) [2]: 7.5 vs hGHRH(1-29)NH2=1
- GH-releasing potency in vitro relative to JI-38, superfused rat pituitary cells [3]: ~3 fold vs JI-38
- IC50 [4]: 270 pM
- relative affinity (binding potency) vs JI-38 [4]: 16.1 vs JI-38=1
- fold increase in GHRH receptor binding affinity vs JI-38 [5]: 2.7 fold vs JI-38
